The text below walks through data of article PMC12448856, “Decoding the base flipping mechanism of the SET- and RING-associated (SRA) domain of the epigenetic UHRF1 protein”.

The target of series [1] is T1, UHRF1 SRA domain (human, UniProt Q96T88 408-643).
T1 sequence: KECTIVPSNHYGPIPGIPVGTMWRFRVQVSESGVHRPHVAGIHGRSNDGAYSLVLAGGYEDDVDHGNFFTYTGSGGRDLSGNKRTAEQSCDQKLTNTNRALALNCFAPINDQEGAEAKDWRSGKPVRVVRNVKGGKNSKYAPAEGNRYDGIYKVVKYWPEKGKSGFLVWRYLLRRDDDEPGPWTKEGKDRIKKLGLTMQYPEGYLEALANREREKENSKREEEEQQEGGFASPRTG
Description: intrinsic Trp fluorescence titration; 1 uM SRA; 20 mM PBS pH 7.5, 50 mM NaCl, 2.5 mM TCEP, 0.05% PEG 20000, 20 C; duplex 1 uM in anisotropy. Particulars: protein: recombinant; 12 bp duplex.

The target in series [2] is T1, UHRF1 SRA domain. The series is described as above. To be noted: protein: recombinant; 12 bp duplex. This is another data set of the same source.

B1: NM duplex, unlabelled (dsDNA)
DNA 1: GGGCCCGCAGGG
DNA 2: CCCTGCGGGCCC
With B1, the Ka with UHRF1 SRA domain [1] was 1.43 ± 0.07 10^6 M-1.

B2: HM duplex, unlabelled (dsDNA)
DNA 1: GGGCCCGCAGGG
DNA 2: CCCTGCGGGCCC
modifications: 5mC at position 6 of strand 1
In the case of B2, the Ka with UHRF1 SRA domain [2] is 8.1 ± 0.2 10^6 M-1.
